{"source": "patent US20240392039A1", "about": "(Regeneron, published 2024)", "binders": {"B1": {"name": "H4H12176P2 (antibody, V domains shown)", "VH": "EVQLVESGGGLVQPGGSLRLSCAASGFHSNRYWMDWVRQAPGKGLEWVANIKQDGSEENYVDSVKGRFTISRDNAKNSLYLQMNSLRAEDTAVYYCARDRSTSWVPYWFFDLWGRGTLVTVSS", "VL": "not shown"}, "B2": {"name": "H4H12176P2xH4H12177P2 bispecific antibody (bispecific antibody, V domains shown)", "VH 1": "B1 VH", "VH 2": "EVQLVESGGGVVQRGESLRLSCSASDFIFKDYAMYWVRQIPGKGLEWISLISGDGDTTWYGDSVKGRFTISRDNNENSLFLQMNDLRTEDTAMYYCARDMGWNFFQLQYWGQGTLVTVSS", "VL": "not shown"}, "B3": {"name": "H4H12177P2 (antibody, V domains shown)", "VH": "B2 VH 2", "VL": "not shown"}, "B4": {"name": "H4H12175P (antibody, V domains shown)", "VH": "EVQLVESGGGVVQPGGSLRLSCAASGFTFNDYAMHWVRQAPGKGLEWVSLISGDGGNTYYADSVKGRLTISRDNSKNSLYLQMNSLRTEDTALYYCAKDKGWNFGYFDLWGRGTLVTVSS", "VL": "DIQMTQSPSSLSTSVGDRVTITCRASQNIDTYLNWYQQKPGKAPKLLIYDASSLQSGVPSRFSGSGSGTDFTLTITSLQPEDFATYYCQQNDNILHPLTFGGGTKVEIK"}, "B5": {"name": "H4H12171P (antibody, V domains shown)", "VH": "EVQLVESGGGVVRPGGSLRLSCAASGFTFDEYGMTWVRQVPGKGLEWVSGITWNGGFTDYTDSVKGRFTSSRDNAKNSLYLQMNSLRAEDTALYYCARDGYSSSWGAYDIWGQGTMVTVSS", "VL": "DIQMTQSPSSLSASVGDRVTITCRASQSISTYLNWYQQKPGKAPKLLIYAASSLQSGVPLRFSGSGSGTDFTLTISSLQPEDFASYFCQQSYSTPYTFGQGTKLEIK"}, "B6": {"name": "H4H12161P (antibody, V domains shown)", "VH": "EVQLVESGGDLVQPGGSLRLSCAASGFTFSDHYMDWVRQAPGKGLDWIGRIRNKANAYNTEYAASVRGRFTISRDDSQNLLYLQMNSLKTDDTAVYYCVRVWNYAYFAMDVWGQGTTVTVSS", "VL": "DIQMTQSPSSLSASVGDRVTITCRSSQNIGIFLNWYQQKPGEAPNLLISAASSLHSGVPSRFSGSGSGTDFTLTIGSLQPEDFATYYCQQTYNTIFTFGPGTKVDIK"}, "B7": {"name": "H4H12170P (antibody, IgG4, V domains shown)", "VH": "QVQLVESGGGVVQPGRSLRLSCAASGFTFSGYGMHWVRQAPGKGLEWVALIWLDGSNDYYADSVKGRFTISRDNSKNTLYLQMNRLRAEDTAVYYCARDGPVAAIPDYWGQGTLVTVSS", "VL": "DIQMTQSPSTLSASVGDRVTITCRASQSISRWLAWYQLKPGKAPKLLIYKASSLESGVPSRFSGSGSGTDFTLTISSLQPDDFATYYCQQYNTYSYTFGQGTKLEIK"}}, "data": [{"target": "T1, human complement C5 (human, UniProt P01031 19-1676)", "T1 sequence (P01031 19-1676 limits assumed)": "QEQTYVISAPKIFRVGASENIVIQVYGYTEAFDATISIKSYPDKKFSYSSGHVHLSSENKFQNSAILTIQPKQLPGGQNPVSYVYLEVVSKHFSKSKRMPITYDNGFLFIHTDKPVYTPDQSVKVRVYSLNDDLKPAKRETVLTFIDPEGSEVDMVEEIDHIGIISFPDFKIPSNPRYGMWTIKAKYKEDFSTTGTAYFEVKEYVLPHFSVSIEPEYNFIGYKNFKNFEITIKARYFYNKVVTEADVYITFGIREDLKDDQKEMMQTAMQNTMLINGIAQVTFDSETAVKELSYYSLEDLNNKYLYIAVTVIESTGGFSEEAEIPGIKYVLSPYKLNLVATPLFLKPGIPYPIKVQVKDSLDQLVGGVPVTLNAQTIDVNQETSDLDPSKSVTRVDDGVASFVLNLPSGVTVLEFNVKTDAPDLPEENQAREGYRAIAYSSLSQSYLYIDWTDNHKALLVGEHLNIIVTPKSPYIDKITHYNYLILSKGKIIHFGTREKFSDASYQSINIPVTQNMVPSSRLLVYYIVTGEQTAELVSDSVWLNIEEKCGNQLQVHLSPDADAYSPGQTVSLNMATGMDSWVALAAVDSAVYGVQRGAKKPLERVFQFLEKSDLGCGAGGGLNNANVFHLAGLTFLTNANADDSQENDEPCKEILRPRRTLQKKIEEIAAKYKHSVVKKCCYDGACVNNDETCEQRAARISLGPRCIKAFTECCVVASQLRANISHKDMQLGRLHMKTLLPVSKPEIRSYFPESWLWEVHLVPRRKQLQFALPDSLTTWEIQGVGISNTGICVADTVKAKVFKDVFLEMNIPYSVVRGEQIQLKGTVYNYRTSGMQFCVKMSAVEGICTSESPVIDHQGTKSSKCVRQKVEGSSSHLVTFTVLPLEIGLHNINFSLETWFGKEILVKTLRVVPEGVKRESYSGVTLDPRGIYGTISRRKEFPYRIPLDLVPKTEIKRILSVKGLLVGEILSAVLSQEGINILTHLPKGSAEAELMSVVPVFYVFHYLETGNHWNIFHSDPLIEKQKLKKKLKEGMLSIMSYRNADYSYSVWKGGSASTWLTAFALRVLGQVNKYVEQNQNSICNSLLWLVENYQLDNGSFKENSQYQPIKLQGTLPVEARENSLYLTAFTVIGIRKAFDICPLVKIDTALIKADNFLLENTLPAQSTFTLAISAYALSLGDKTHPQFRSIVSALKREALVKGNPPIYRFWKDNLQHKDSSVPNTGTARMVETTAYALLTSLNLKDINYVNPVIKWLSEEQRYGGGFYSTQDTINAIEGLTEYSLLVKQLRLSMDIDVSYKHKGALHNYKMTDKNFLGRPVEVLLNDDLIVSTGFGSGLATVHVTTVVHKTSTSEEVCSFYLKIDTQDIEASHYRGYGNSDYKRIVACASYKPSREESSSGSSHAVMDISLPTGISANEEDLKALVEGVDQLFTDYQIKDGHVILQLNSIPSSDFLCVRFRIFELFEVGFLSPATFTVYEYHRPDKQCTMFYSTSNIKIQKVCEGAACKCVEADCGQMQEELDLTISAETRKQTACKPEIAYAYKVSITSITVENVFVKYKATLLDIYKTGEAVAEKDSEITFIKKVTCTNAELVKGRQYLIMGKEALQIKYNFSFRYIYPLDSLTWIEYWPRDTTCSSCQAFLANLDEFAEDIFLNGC", "assay": "cell-based or functional assay", "units": {"% Max Inh. of Lysis (alternative pathway hemolysis, 25% NHS, 30 min)": "%"}, "values": [{"binder": "B1", "% Max Inh. of Lysis (alternative pathway hemolysis, 25% NHS, 30 min)": 27.4}, {"binder": "B2", "% Max Inh. of Lysis (alternative pathway hemolysis, 25% NHS, 30 min)": 98.1}, {"binder": "B3", "% Max Inh. of Lysis (alternative pathway hemolysis, 25% NHS, 30 min)": 42.6}]}, {"target": "T1, human complement C5", "assay": "cell-based or functional assay", "remark": "another data set of the same source", "units": {"% Max Inh. of Lysis (alternative pathway hemolysis of rabbit RBC, 25% NHS, 30 min)": "%"}, "values": [{"binder": "B4", "% Max Inh. of Lysis (alternative pathway hemolysis of rabbit RBC, 25% NHS, 30 min)": 77.8}, {"binder": "B5", "% Max Inh. of Lysis (alternative pathway hemolysis of rabbit RBC, 25% NHS, 30 min)": 36.6}, {"binder": "B6", "% Max Inh. of Lysis (alternative pathway hemolysis of rabbit RBC, 25% NHS, 30 min)": 59.2}, {"binder": "B7", "% Max Inh. of Lysis (alternative pathway hemolysis of rabbit RBC, 25% NHS, 30 min)": 88.7}, {"binder": "B1", "% Max Inh. of Lysis (alternative pathway hemolysis of rabbit RBC, 25% NHS, 30 min)": 62.8}, {"binder": "B3", "% Max Inh. of Lysis (alternative pathway hemolysis of rabbit RBC, 25% NHS, 30 min)": 76.2}]}, {"target": "T1, human complement C5", "assay": "cell-based or functional assay", "remark": "another data set of the same source", "units": {"mAb/C5 ratio that blocked hemolysis to close to zero (25% C5-deficient NHS, 145 nM C5 add-back)": "mAb/C5 molar ratio"}, "values": [{"binder": "B2", "mAb/C5 ratio that blocked hemolysis to close to zero (25% C5-deficient NHS, 145 nM C5 add-back)": "~1.29"}]}]}
